Experimental data reported in patent US20200317768A1 (published 2020).
Residue numbers refer to the chain shown, from its start.

T1: cynomolgus monkey FcγRIIa3 extracellular domain with C-terminal His-tag (cynomolgus monkey)
T1 construct: also called cyno FcgRIIa3; cynoFcγRIIa3
T1 chain: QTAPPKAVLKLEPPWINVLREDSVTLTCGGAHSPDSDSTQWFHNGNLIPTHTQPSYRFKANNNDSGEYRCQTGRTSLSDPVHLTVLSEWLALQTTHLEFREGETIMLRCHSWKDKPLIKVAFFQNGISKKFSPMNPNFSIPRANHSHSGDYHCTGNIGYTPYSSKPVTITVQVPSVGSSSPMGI

T2: cynomolgus monkey FcγRIIb extracellular domain with C-terminal His-tag (cynomolgus monkey)
T2 construct: also called cyno FcgRIIb; cynoFcγRIIb
T2 chain: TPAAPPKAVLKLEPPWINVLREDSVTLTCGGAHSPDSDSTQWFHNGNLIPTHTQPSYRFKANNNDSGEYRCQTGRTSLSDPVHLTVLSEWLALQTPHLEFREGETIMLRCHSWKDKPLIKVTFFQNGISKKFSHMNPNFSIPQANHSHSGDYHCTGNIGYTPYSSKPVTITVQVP

T3: cynomolgus monkey FcγRIIa2 extracellular domain with C-terminal His-tag (cynomolgus monkey)
T3 construct: also called cyno FcgRIIa2; cynoFcγRIIa2
T3 chain: T1 chain with I127K, K130N, P133H, R142Q

T4: human FcγRIIb extracellular domain with C-terminal His-tag (human, UniProt P31994 43-217)
T4 construct: also called human FcgRIIb
T4 sequence: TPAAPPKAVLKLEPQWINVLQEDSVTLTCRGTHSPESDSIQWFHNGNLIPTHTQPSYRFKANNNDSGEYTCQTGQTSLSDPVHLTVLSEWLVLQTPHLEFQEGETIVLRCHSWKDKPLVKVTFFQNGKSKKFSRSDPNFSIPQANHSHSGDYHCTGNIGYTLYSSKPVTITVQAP

T5: cynomolgus monkey FcγRIIa1 extracellular domain with C-terminal His-tag (cynomolgus monkey)
T5 construct: also called cyno FcgRIIa1; cynoFcγRIIa1
T5 chain: T1 chain with T95P, A121T, S128A, P133H, N135D

T6: human FcγRIIaH extracellular domain with C-terminal His-tag (human, UniProt P12318 34-217)
T6 construct: also called human FcgRIIaH; FcγRIIa (type H)
T6 sequence: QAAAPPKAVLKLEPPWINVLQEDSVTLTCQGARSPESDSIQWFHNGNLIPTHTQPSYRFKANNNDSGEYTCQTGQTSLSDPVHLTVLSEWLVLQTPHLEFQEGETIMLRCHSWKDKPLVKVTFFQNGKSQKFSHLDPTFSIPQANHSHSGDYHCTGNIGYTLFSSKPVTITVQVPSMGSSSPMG

T7: human FcγRIIaR extracellular domain with C-terminal His-tag (human, UniProt P12318 34-217)
T7 construct: also called human FcgRIIaR; FcγRIIa (type R)
T7 chain: T6 sequence with H134R

B1: M103205H795-MY400/M103202L889-SK1 (antibody, human IgG1, kappa)
heavy: QVTLKESGPVLVKPTETLTLTCTVSGIDLSHDDISWVRQAPGKGLEWVGIISYAGSTYYASWAKGRLTISKDTSKNQVVLTMTNMDPVDTATYYCARGVPAYSHGGDLWGQGTLVTVSSASTKGPSVFPLAPSSKSTSGGTAALGCLVKDYFPEPVTVSWNSGALTSGVHTFPAVLQSSGLYSLSSVVTVPSSSLGTQTYICNVNHKPSNTKVDKKVEPKSCDKTHTCPPCPAPELLTGPSVFLFPPKPKDTLMISRTPEVTCVVVDVSDEDPEVKFNWYVDGVEVHNAKTKPREEQYNSTYRVVSVLTVLHQDWLNGKEYKCKVSNKALPKEIEKTISKAKGQPREPQVYTLPPSREEMTKNQVSLTCLVKGFYPSDIAVEWESNGQPENNYKTTPPVLDSDGSFFLYSKLTVDKSRWQQGNVFSCSVMHEALHNHYTQKSLSLSP
light: DIVMTQSPATLSLSPGERATLSCTSSQSVYHANWLSWFQQKPGQPPKLLIYWASTLAYGVPSRFSGSGSGTDFTLTISSLQPEDAATYYCAGGYGGGRYAFGQGTKVEIKRTVAAPSVFIFPPSDEQLKSGTASVVCLLNNFYPREAKVQWKVDNALQSGNSQESVTEQDSKDSTYSLSSTLTLSKADYEKHKVYACEVTHQGLSSPVTKSFNRGEC
notes: Substitutions introduced into M103205H795-SG1, expressed with M103202L889-SK1 as light chain; EU numbering
B2: M103205H795-MY524/M103202L889-SK1 (antibody, human IgG1, kappa)
heavy: B1 heavy with A233G, Q297L, E333P
light: B1 light
notes: as for B1
B3: M103205H795-MY514/M103202L889-SK1 (antibody, human IgG1, kappa)
heavy: B1 heavy with S241V, S300L, E333P
light: B1 light
notes: as for B1
B4: M103205H795-MY522/M103202L889-SK1 (antibody, human IgG1, kappa)
heavy: B1 heavy with A233G, S241V, E333P
light: B1 light
notes: as for B1
B5: M103205H795-MY516/M103202L889-SK1 (antibody, human IgG1, kappa)
heavy: B1 heavy with S241V, Q297L, S300L, E333P
light: B1 light
notes: as for B1
B6: M103205H795-MY525/M103202L889-SK1 (antibody, human IgG1, kappa)
heavy: B1 heavy with A233T, S241V, E333P
light: B1 light
notes: as for B1
B7: M103205H795-MY523/M103202L889-SK1 (antibody, human IgG1, kappa)
heavy: B1 heavy with A233G, S241V, Q297L, E333P
light: B1 light
notes: as for B1
B8: M103205H795-MY521/M103202L889-SK1 (antibody, human IgG1, kappa)
heavy: B1 heavy with P234D, Q297L, E333P
light: B1 light
notes: as for B1
B9: M103205H795-MY515/M103202L889-SK1 (antibody, human IgG1, kappa)
heavy: B1 heavy with Q297L, S300L, E333P
light: B1 light
notes: as for B1
B10: M103205H795-MY526/M103202L889-SK1 (antibody, human IgG1, kappa)
heavy: B1 heavy with A233T, S241V, Q297L, E333P
light: B1 light
notes: as for B1
B11: M103205H795-MY520/M103202L889-SK1 (antibody, human IgG1, kappa)
heavy: B1 heavy with P234D, S241V, Q297L, E333P
light: B1 light
notes: as for B1

Experiments:
Assay in all cases: SPR (BIACORE); KD of SG1 / KD of variant;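 note: relative to parent M103205H795-SG1 carrying the SG1 human heavy chain constant region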
[1] = target: T1, cynomolgus monkey FcγRIIa3 …
[2] = target: T8, human FcγRIIIaV extracellular domain with C-terminal His-tag (human, UniProt P08637 17-208)
T8 construct: also called human FcgRIIIaV

[3] = target: T2, cynomolgus monkey FcγRIIb extracellular …
[4] = target: T3, cynomolgus monkey FcγRIIa2 …
[5] = target: T4, human FcγRIIb extracellular domain with …
[6] = target: T5, cynomolgus monkey FcγRIIa1 …
[7] = target: T6, human FcγRIIaH extracellular domain …
[8] = target: T7, human FcγRIIaR extracellular domain …

T8 sequence (P08637 17-208 F176V): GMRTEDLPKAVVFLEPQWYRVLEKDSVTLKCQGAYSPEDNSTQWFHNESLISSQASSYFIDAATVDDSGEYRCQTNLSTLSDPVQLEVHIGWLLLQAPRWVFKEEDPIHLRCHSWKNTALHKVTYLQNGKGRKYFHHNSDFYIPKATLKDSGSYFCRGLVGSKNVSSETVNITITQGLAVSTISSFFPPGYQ

| Binder | KD fold (SG1 = 1) [1] [fold] | KD fold (SG1 = 1) [2] [fold] | KD fold (SG1 = 1) [3] [fold] | KD fold (SG1 = 1) [4] [fold] | KD fold (SG1 = 1) [5] [fold] | KD fold (SG1 = 1) [6] [fold] | KD fold (SG1 = 1) [7] [fold] | KD fold (SG1 = 1) [8] [fold] |
| --- | --- | --- | --- | --- | --- | --- | --- | --- |
| B1 | 4.5 | 0.1 | 2.9 | 2.3 | 1.8 | 1.8 | 1.6 | 1.5 |
| B2 | 6.3 | 0.18 | 5.8 | 4.6 | 4.5 | 3.2 | 6.3 | 3.9 |
| B3 | 11.3 | 0.08 | 2.4 | 3.2 | 6.7 | 12.3 | 2 | 6.5 |
| B4 | 18.3 | 0.14 | 3.4 | 4.3 | 4.2 | 1.9 | 2.9 | 6.5 |
| B5 | 21.5 | 0.12 | 4 | 3.9 | 9 | 21.3 | 3.1 | 12.9 |
| B6 | 15.5 | 0.19 | 3.5 | 4.6 | 3.8 | 2 | 3.3 | 6.5 |
| B7 | 15.5 | 0.15 | 3.8 | 3.9 | 4.2 | 2.3 | 3.6 | 3.7 |
| B8 | 3.9 | 0.16 | 2.9 | 1.5 | 3.2 | 1.3 | 2.4 | 3.3 |
| B9 | 5.9 | 0.09 | 4.6 | 3.2 | 3.8 | 22.9 | 3.1 | 4.2 |
| B10 | 13.1 | 0.19 | 3.9 | 4.3 | 3.8 | 2.5 | 4.1 | 5.2 |
| B11 | 8.3 | 0.29 | 1.5 | 2.2 | 3.5 | 1.3 | 1.4 | 3.3 |
